Test results reported in paper PMC6625990, “Structural underpinnings of Ric8A function as a G-protein α-subunit chaperone and guanine-nucleotide exchange factor” (Nature Communications, 2019).
Numbering of substitutions follows the chain as printed. Names may count otherwise. “And” between values parts separate entries of the source, which are not always exact repeats. Equal values may be shown once. No end group written: not given here. *: point of attachment. Biotin = O=C1N[C@H]2[C@H](CS[C@H]2CCCCC(=O)*)N1

T1: MBP-Gαt327–350 (UniProt P04695 327-350)
T1 construct: In pET15b; also called 24 C-terminal residues of Gαt fused to MBP; tagged C-terminal fragment of Gα; source: E. coli BL21(DE3), purified (Ni-NTA, SEC); not shown: MBP (E. coli MBP28–394 with D110A/K111A/E200A/N201A/A243H/K247H/K267A, joined by an AAAH linker), N-terminal, kept
T1 chain (looked up): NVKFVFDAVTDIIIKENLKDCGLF

T2: GB1-Gαt340–350 (UniProt P04695 340-350)
T2 construct: transducin-α (Gαt, Gαt1), the 11 C-terminal residues 340-350; Cloned into a modified pQE30 vector containing the GB1 tag; also called 11 C-terminal residues of Gαt fused to the B1 domain of Streptococcal protein G; source: E. coli BL21(DE3); purification not described
T2 chain (looked up): IKENLKDCGLF

T3: Gαs363–380 (UniProt P63092-2 363-380)
T3 construct: Gαs, C-terminal 18 residues 363-380; the numbers fit the 380-residue short form; also called peptide comprised of the C-terminal 18 residues of Gαs; Gαs C-terminal peptide
T3 peptide (looked up): Biotin-NDCRDIIQRMHLRQYELL

B1: bovine Ric8A1–492 (domain or fragment, UniProt Q5E9J8 1-492, looked up)
chain: MEPRAVADALETGEEDVVMEALRAYNRENSQSFTFDDAQQEDRKRLAKLLVSVLEQGLPPSRRVIWLQSIRILSRDRSCLDSFTSRRSLQALACYAGISASQGSVPEPLNMDVVLESLKCLCNLVLSSPVAQALAAEAGLVVRLAERVGLCRQSSFPHDVQFFDLRLLFLLTALRTDVRQQLFQELQGVRLLTRALELTLGMTEGERHPELLPPQETERAMEILKVLFNITFDSIKREVDEEDAALYRHLGTLLRHCVMLAAAGDRTEELHGHAVNLLGNLPVKCLDVLLTLEPHEGSLEFLGVNMDVIRVLLSFMEKRLHQTHRLKESVAPVLSVLTECARMHRPARKFLKAQVLPPLRDVRTRPEVGELLRNKLVRLMTHLDTDVKRVAAEFLFVLCSESVPRFIKYTGYGNAAGLLAARGLMAGGRPEGQYSEDEDTDTDEYKEAKASINPVTGRVEEKPPNPMEGMTEEQKEHEAMKLVNMFDKLSRH
B2: Avi-tagged I340Q/N343H mutant of Gαt (natural protein)
chain: MGAGASAEEKHSRELEKKLKEDAEKDARTVKLLLLGAGESGKSTIVKQMKIIHQDGYSLEECLEFIAIIYGNTLQSILAIVRAMTTLNIQYGDSARQDDARKLMHMADTIEEGTMPKEMSDIIQRLWKDSGIQACFDRASEYQLNDSAGYYLSDLERLVTPGYVPTEQDVLRSRVKTTGIIETQFSFKDLNFRMFDVGGQRSERKKWIHCFEGVTAIIFCVALSDYDLVLAEDEEMNRMHESMKLFDSICNNKWFTDTSIILFLNKKDLFEEKIKKSPLTICYPEYAGSNTYEEAGNYIKVQFLELNMRRDVKEIYSHMTCATDTQNVKFVFDAVTDIIQKEHLKDCGLF
modifications: biotin on the Avi tag (cells grown in media supplemented with biotin)
B3: full-length Avi-tagged Gαt (natural protein)
chain: B2 chain with Q340I, H343N
modifications: biotin on the Avi tag (cells grown in media supplemented with biotin)
B4: peptide C2 (peptide)
peptide: Biotin-NDCRDIIIRMNLRQCGLF
modifications: cysteine pairing not given here
notes: Gαs C-terminal 18-mer without its last four residues, with Q370I and H373N; the numbers fit the 380-residue short form; the four C-terminal residues of Gαt; Peptide C1 with two additional substitutions
B5: peptide C1 (peptide)
peptide: Biotin-NDCRDIIQRMHLRQCGLF
modifications: cysteine pairing not given here
notes: Gαs C-terminal 18-mer without its last four residues; the numbers fit the 380-residue short form; the four C-terminal residues of Gαt; also called chimeric C-terminal peptide of Gαs ending in CGLF
B6: Gαt333–350 (peptide, UniProt P04695 333-350, looked up)
peptide: Biotin-DAVTDIIIKENLKDCGLF
notes: also called 18-mer C-terminal peptide of Gαt; biotinylated Gαt333–350

Columns and labels:
Conditions in all cases: both partners purified
[1] = target: B6; assay: differential scanning fluorimetry; Ric8A constructs at 0.5 mg/ml with or without 50 µM peptide, Sypro Orange, 20 mM Tris-HCl pH 7.5, 150 mM KCl, 5% glycerol, 1 mM TCEP
[2] = target: T1, MBP-Gαt327–350; assay: SEC; Ric8A1–492 mixed with GB1-Gαt340–350 or MBP-Gαt327–350; elution profiles
[3] = target: T2, GB1-Gαt340–350; assay: as above
[4] = target: T3, Gαs363–380; assay: BLI; N-terminally biotinylated Gα peptides on streptavidin biosensors, Ric8A proteins in solution; Octet RED96, 26 °C, 20 mM Tris, 150 mM KCl, 5% glycerol, 1 mM TCEP, 0.5 mg/ml BSA, pH 8.0; kinetic fit (1:1 model) and steady-state fit (one site)
[5] = target: B1; assay: BLI; full-length Avi-tagged Gαt on streptavidin biosensors, Ric8A1–492 proteins in solution; 26 °C, 20 mM Tris, 150 mM KCl, 5% glycerol, 1 mM TCEP, 0.5 mg/ml BSA, pH 8.0; steady-state fit
[6] = target: B1; assay: BLI; N-terminally biotinylated Gα peptides on streptavidin biosensors, Ric8A proteins in solution; Octet RED96, 26 °C, 20 mM Tris, 150 mM KCl, 5% glycerol, 1 mM TCEP, 0.5 mg/ml BSA, pH 8.0; kinetic fit (1:1 model) and steady-state fit (one site)

B1
shift of Tm [1]: ~9 °C | stoichiometry N [2]: ~1 | stoichiometry N [3]: ~1 | fold lower affinity than to Gαt333–350 [4]: ~18 fold

B2
Kd [5]: 2300 nM

B3
Kd [5]: 24 nM

B4
binding result [6]: binds

B5
binding result [6]: binds

B6
Kd [6]: 240 nM and 280 nM and 270 nM | koff [6]: 0.031 s⁻¹ | kon [6]: 130000 M⁻¹ s⁻¹
